The source of these data is patent CN113754772A (SUNSHINE GUOJIAN PHARMACEUTICAL SHANGHAI CO LTD, dated 2021).

B1: 抗KDR单抗 (anti-human KDR monoclonal antibody) (antibody, V domains shown)
VH: EVQLVESGGGLVKPGGSLRLSCAASGFTFSSYSMNWVRQAPGKGLEWVSSISSSSSYIYYADSVKGRFTISRDNAKNSLYLQMNSLRAEDTAVYYCARVTDAFDIWGQGTLVTVSS
VL: VLTQPPSVSGAPGQRVTISCTGSHSNFGAGTDVHWYQHLPGTAPKLLIHGDSNRPSGVPDRFSGSKSGTSASLAITGLQAEDEADYYCQSYDYGLRGWVFGGGTKLTVL
notes: Whole monoclonal antibody; CDRs from clone 3A10 of Dan Lu et al. 2003, frameworks mutated in house; also called 抗人KDR单抗; anti-KDR mAb
B2: 抗PD-L1单抗 (anti-human PD-L1 monoclonal antibody M8) (antibody, V domains shown)
VH: QVQLQQSGGGLVKPSQSLSLTCTVSGFSLTSYGVHWVRQPPGKGLEWIGLIWSGGGTDYNPSLKSRLTISRDTSKNQVSFKISSLTAADTAVYYCARQLGLRAMDYWGQGTSVTVSS
VL: EIVLTQSPDFLSVTPKEKVTITCRASQSIGTTIHWYQQKPDQSPKLLIKYASQSFSGVPSRFSGSGSGTDFTLTINSVEAEDAATYYCQQSNSWPLTFGAGTKLEIK
notes: also called 抗人PD-L1单抗M8; anti-PDL1 mAb
B3: anti-PDL1×KDR BsAb1 (bispecific antibody)
heavy (part 1 of 2): B2 VH
heavy (part 2 of 2): GGGGSGGGGSGGGGSVLTQPPSVSGAPGQRVTISCTGSHSNFGAGTDVHWYQHLPGTAPKLLIHGDSNRPSGVPDRFSGSKSGTSASLAITGLQAEDEADYYCQSYDYGLRGWVFGGGTKLTVLGGGGSGGGGSGGGGSGGGGSEVQLVESGGGLVKPGGSLRLSCAASGFTFSSYSMNWVRQAPGKGLEWVSSISSSSSYIYYADSVKGRFTISRDNAKNSLYLQMNSLRAEDTAVYYCARVTDAFDIWGQGTLVTVSS
light: EIVLTQSPDFLSVTPKEKVTITCRASQSIGTTIHWYQQKPDQSPKLLIKYASQSFSGVPSRFSGSGSGTDFTLTINSVEAEDAATYYCQQSNSWPLTFGAGTKLEIKRTVAAPSVFIFPPSDEQLKSGTASVVCLLNNFYPREAKVQWKVDNALQSGNSQESVTEQDSKDSTYSLSSTLTLSKADYEKHKVYACEVTHQGLSSPVTKSFNRGEC
notes: also called 抗PDL1×KDR双抗; not shown: CH1-CH2-CH3 heavy chain constant region
B4: anti-PDL1×KDR BsAb2 (bispecific antibody)
heavy (part 1 of 2): B2 VH
heavy (part 2 of 2): GGGGSGGGGSGGGGSEVQLVESGGGLVKPGGSLRLSCAASGFTFSSYSMNWVRQAPGKGLEWVSSISSSSSYIYYADSVKGRFTISRDNAKNSLYLQMNSLRAEDTAVYYCARVTDAFDIWGQGTLVTVSSGGGGSGGGGSGGGGSGGGGSVLTQPPSVSGAPGQRVTISCTGSHSNFGAGTDVHWYQHLPGTAPKLLIHGDSNRPSGVPDRFSGSKSGTSASLAITGLQAEDEADYYCQSYDYGLRGWVFGGGTKLTVL
light: B3 light
notes: as for B3
B5: anti-PDL1×KDR BsAb3 (bispecific antibody, human IgG1, lambda)
heavy: not shown
light: VLTQPPSVSGAPGQRVTISCTGSHSNFGAGTDVHWYQHLPGTAPKLLIHGDSNRPSGVPDRFSGSKSGTSASLAITGLQAEDEADYYCQSYDYGLRGWVFGGGTKLTVLGQPKAAPSVTLFPPSSEELQANKATLVCLISDFYPGAVTVAWKADSSPVKAGVETTTPSKQSNNKYAASSYLSLTPEQWKSHRSYSCQVTHEGSTVEKTVAPTECS
notes: also called 抗PDL1×KDR双抗

T2 sequence (P35968 other isoform, or with tags, fused parts or gaps): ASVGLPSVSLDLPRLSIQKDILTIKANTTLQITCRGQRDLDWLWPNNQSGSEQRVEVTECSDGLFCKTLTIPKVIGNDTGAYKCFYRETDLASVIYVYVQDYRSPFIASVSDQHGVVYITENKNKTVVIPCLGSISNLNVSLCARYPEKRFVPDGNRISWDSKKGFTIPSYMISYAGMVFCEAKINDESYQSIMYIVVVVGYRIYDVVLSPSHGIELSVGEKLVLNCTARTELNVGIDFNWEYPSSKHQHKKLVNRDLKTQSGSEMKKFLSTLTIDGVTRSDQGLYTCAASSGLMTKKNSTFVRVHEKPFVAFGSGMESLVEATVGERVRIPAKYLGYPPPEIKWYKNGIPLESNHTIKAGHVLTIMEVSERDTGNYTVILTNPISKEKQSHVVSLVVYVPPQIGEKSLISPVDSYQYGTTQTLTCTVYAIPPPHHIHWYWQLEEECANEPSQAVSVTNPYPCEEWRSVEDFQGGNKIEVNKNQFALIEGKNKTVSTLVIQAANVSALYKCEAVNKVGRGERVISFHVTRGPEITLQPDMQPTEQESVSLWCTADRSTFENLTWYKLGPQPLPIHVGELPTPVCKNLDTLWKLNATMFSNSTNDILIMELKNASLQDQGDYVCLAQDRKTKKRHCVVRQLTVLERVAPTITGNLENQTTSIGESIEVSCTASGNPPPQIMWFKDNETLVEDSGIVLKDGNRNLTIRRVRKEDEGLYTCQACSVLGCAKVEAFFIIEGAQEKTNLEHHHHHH
Sequence of KDR on KDR/NFAT-RE HEK293 cells (P35968 20-1356): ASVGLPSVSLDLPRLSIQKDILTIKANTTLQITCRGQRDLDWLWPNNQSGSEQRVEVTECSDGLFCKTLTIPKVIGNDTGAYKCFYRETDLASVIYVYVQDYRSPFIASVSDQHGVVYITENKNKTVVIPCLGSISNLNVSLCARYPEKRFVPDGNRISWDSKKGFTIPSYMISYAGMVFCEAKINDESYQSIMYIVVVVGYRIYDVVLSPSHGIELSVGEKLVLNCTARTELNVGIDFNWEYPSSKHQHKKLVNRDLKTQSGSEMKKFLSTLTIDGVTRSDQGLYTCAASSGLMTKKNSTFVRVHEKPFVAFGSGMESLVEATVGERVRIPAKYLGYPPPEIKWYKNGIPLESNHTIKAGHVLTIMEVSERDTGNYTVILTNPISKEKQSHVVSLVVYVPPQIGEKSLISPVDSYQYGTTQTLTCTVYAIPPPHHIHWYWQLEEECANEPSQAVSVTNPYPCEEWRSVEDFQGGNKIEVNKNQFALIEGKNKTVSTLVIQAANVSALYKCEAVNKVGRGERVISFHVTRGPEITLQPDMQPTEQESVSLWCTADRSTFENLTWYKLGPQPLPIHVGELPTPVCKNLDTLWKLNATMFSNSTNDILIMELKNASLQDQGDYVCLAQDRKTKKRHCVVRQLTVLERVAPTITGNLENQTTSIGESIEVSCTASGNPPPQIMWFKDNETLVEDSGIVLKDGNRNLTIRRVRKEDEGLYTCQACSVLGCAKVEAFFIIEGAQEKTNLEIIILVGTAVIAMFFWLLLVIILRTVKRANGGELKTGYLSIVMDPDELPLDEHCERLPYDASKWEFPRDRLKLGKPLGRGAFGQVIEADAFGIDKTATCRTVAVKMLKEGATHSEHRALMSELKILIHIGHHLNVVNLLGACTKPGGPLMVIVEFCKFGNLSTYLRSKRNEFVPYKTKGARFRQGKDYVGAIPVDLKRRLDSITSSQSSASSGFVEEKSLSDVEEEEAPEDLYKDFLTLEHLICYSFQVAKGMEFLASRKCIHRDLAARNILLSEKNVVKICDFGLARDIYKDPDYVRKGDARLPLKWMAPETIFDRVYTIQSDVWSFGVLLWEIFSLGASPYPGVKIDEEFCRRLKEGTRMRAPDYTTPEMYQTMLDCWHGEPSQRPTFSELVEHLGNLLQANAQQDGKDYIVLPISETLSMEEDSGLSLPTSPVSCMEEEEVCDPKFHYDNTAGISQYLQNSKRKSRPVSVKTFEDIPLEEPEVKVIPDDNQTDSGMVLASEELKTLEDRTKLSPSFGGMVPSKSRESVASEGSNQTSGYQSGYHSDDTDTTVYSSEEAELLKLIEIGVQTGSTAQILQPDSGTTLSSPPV

For the first test, the target named is T1, PDL1-ECD-hFc蛋白 (human, UniProt Q9NZQ7 19-238).
T1 construct: extracellular domain; PDL1-ECD-His with its C-terminal tag exchanged for hFc; not shown: hFc tag in place of the His tag
T1 sequence (Q9NZQ7 19-238): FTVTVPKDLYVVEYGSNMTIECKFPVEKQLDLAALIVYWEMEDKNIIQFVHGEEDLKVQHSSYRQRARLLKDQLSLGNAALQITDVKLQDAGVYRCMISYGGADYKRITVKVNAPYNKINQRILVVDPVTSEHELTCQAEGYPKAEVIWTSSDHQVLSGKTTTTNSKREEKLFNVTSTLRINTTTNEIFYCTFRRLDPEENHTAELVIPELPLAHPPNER
Kind of test: bridging ELISA: PDL1-ECD-hFc coated, antibody, then KDR-ECD-His, detected with HRP-anti-His.
For B1, the binding result is “no binding (tested: 12nM)”.

A further test has as its target T2, KDR-ECD-His蛋白 (human, UniProt P35968 20-764).
T2 construct: extracellular domain; Made in HEK-293E cells with an added N-terminal signal peptide (not part of the mature protein); also called KDR抗原
The description is as above.
B2: the binding result is listed as “no binding (tested: 12nM)”.

The target of another test is T3, PD-L1 on N87-PDL1 cells (UniProt Q9NZQ7 19-290, limits assumed).
T3 construct: whole, on cells; also called N87-PDL1细胞
T3 sequence (Q9NZQ7 19-290 limits assumed): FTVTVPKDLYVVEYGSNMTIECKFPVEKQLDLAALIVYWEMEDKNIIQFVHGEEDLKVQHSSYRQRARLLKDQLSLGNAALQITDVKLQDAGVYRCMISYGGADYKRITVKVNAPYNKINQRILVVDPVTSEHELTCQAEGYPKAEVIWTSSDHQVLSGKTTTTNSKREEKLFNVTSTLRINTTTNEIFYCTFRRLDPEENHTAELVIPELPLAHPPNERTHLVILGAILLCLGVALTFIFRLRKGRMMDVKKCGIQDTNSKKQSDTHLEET
The test can be described thus: flow cytometry on N87-PDL1 cells, FITC goat anti-human Fc.
For the molecule B2, it took 0.13 nM to reach a half-maximal effect (EC50).
On the same count and under the same terms, in the case of B3 it was 0.15 nM; in that of B4, 0.15 nM.
Same read-out and setting: the result for B5 reads 0.21 nM.

A further test concerns the target T2, KDR-ECD-His蛋白. Kind of test: ELISA, KDR-ECD-His coated, HRP-anti-Fab.
In turn, B1 yielded an EC50 of 0.26 nM.
The molecule B3 came in with an EC50 of 0.23 nM.
The same measure, in the same setting: the result for B4 reads 0.23 nM; that for B5, 0.41 nM.

The next test addresses KDR on KDR/NFAT-RE HEK293 cells (UniProt P35968 20-1356). Kind of test: cell-based or functional assay.
For B1, the “IC50 (luminescence, VEGF Bioassay)” value turned out to be 3.1 nM.
Same read-out and setting: the result for B3 reads 13.5 nM; that for B4, 6.09 nM.
For the molecule B5, the “IC50 (luminescence, VEGF Bioassay)” value is 4.35 nM.

The next test deals with PD-L1 on PD-L1 aAPC/CHO-K1 cells (UniProt Q9NZQ7 19-290, limits assumed). The test can be described thus: cell-based or functional assay.
Sequence of PD-L1 on PD-L1 aAPC/CHO-K1 cells (Q9NZQ7 19-290 limits assumed): as above
Consider B2, for which the “IC50 (luminescence, PD-1/PD-L1 Blockade Bioassay)” value came to 0.23 nM.
The same measure, in the same setting: the result for B3 reads 0.27 nM.
The same measure, in the same setting: in the case of B4 it was 0.22 nM; in that of B5, 0.3 nM.

The target in a further test is T4, PDL1-ECD-His蛋白 (human, UniProt Q9NZQ7 19-238).
T4 construct: extracellular domain; Made in HEK-293E cells with an added N-terminal signal peptide (not part of the mature protein); also called PD-L1抗原
T4 sequence (Q9NZQ7 other isoform, or with tags, fused parts or gaps): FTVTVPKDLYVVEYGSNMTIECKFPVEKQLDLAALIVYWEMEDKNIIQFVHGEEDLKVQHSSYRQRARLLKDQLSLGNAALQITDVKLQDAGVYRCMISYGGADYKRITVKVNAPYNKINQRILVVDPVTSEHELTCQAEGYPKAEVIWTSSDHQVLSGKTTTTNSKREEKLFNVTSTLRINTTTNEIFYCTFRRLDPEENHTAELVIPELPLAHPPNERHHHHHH
The test can be described thus: ELISA, PDL1-ECD-His coated, HRP goat anti-human Fc.
B2 showed an EC50 of 0.13 nM.
On the same count and under the same terms, in the case of B3 it was 0.13 nM.
Take B4: the EC50 came to 0.14 nM.
B5 gave an EC50 of 0.15 nM.

In a further test the target is T1, PDL1-ECD-hFc蛋白. Kind of test: bridging ELISA: PDL1-ECD-hFc coated, antibody titrated, then 1 μg/ml KDR-ECD-His, HRP-anti-His (binding of both antigens at once).
The molecule B3 showed an EC50 of 0.13 nM.
Still for that read-out and setting: in the case of B4 it was 0.14 nM; in that of B5, 0.2 nM.
